Among the data in US20030143665A1 (NEW YORK UNIVERSITY, published 2003) are Kd values, retold here.

Assay [1] addresses T1, native CIRL of rat brain (calcium-independent α-latrotoxin binding sites in rat brain membranes); affinity … (rat, UniProt O88917 22-1515).
T1 sequence: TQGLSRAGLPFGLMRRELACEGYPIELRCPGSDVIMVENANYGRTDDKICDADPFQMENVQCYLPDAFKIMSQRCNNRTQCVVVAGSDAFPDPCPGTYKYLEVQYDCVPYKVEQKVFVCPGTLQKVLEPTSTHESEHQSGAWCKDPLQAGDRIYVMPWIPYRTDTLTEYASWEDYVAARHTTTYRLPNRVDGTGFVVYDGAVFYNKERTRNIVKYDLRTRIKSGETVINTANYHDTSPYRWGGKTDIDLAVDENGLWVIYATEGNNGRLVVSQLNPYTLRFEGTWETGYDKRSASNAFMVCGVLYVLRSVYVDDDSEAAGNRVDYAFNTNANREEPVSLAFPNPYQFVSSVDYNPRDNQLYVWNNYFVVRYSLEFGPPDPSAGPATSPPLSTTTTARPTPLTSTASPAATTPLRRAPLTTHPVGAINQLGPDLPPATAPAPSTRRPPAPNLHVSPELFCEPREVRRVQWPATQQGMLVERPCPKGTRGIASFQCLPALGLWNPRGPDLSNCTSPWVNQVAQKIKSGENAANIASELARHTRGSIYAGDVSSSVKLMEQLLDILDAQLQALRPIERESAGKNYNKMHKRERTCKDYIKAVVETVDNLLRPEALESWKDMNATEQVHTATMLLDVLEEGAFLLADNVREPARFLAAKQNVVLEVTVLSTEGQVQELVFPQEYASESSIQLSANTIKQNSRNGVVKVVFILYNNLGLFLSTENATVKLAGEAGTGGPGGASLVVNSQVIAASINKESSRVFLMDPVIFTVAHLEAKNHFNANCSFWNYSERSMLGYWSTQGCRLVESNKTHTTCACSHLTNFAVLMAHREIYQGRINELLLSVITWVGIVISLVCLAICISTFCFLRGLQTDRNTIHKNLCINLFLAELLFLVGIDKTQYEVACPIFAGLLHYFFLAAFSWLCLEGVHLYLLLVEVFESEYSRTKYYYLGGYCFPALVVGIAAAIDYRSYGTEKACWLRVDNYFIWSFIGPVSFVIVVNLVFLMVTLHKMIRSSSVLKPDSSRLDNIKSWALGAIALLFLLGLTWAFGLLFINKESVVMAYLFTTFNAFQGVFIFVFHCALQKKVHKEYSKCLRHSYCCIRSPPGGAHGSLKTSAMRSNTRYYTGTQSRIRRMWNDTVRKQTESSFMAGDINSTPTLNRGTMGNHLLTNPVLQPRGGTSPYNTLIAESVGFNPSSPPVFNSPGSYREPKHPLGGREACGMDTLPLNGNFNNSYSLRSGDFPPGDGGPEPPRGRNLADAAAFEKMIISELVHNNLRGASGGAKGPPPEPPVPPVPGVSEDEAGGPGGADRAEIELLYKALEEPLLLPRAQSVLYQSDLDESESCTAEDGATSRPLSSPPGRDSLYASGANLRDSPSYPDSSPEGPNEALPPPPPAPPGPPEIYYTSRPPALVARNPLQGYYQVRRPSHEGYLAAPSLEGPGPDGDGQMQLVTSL

Assay [2] concerns the target T2, recombinant CIRL (calcium-independent receptor of α-latrotoxin), full-length, expressed in COS cells (rat, UniProt O88917 22-1515).
T2 sequence: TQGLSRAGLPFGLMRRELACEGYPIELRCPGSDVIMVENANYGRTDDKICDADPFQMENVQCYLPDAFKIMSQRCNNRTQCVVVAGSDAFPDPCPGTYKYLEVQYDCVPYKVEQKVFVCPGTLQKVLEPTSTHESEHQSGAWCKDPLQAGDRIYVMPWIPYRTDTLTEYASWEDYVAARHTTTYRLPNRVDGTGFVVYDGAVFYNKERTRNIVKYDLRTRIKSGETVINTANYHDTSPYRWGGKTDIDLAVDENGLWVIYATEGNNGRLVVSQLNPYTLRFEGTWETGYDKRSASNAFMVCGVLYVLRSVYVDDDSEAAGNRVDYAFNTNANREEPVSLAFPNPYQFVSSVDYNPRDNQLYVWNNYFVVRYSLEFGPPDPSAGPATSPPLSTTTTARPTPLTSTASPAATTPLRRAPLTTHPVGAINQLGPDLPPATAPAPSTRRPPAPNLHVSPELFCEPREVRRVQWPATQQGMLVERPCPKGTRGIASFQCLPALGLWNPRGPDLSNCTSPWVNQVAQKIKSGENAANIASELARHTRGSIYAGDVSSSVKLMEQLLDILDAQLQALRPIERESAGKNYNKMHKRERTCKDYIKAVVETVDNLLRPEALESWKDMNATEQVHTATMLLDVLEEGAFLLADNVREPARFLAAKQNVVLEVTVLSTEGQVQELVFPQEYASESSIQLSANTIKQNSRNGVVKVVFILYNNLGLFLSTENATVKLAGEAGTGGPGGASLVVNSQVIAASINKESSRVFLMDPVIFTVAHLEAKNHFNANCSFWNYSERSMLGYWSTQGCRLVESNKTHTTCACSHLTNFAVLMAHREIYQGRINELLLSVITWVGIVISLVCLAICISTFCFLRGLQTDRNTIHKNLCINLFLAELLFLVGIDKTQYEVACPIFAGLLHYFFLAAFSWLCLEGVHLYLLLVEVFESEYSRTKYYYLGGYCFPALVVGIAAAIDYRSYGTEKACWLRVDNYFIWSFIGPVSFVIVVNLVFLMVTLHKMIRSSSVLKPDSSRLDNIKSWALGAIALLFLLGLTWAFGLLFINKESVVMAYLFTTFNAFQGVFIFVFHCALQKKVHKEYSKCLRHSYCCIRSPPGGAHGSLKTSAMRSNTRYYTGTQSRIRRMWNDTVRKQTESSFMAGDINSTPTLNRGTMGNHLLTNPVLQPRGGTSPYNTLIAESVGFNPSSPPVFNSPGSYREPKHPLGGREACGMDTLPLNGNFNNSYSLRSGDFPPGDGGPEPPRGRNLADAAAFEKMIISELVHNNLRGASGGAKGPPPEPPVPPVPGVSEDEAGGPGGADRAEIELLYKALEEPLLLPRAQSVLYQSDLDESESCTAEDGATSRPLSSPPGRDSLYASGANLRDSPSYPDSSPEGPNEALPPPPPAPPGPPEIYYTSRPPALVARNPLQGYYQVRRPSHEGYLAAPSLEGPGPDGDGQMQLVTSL

As usually defined, the Kd is the concentration at which binding is half-saturated.

B1: α-latrotoxin (ligand)
chain: EGEDLTLEEKAEICSELELQQKYVDIASNIIGDLSSLPIAGKIAGTIAAAAMTATHVASGRLDIEQTLLGCSDLPFDQIKEVLENRFNEIDRKLDSHSAALEEITKLVEKSISVVEKTRKQMNKRFDEVMKSIQDAKVSPIISKINNFARYFDTEKERIRGLKLNDYILKLEEPNGILLHFKESRTPTDDSLQAPLFSIIEEGYAVPKSIDDELAFKVLYALLYGTQTYVSVMFFLLEQYSFLANHYYEKGYLEKYDEYFNSLNNVFLDFKSSLVGTGTSNNEGLLDRVLQVLMTVKNSEFLGLEKNGVDEMLNEKINLFNKIKEEIEGKQKMTLSETPENFAQISFDKDITTPIGDWRDGREVRYAVQYASETLFSKISHWSDPVSVREKACPTLRMPVDQTRRNVLVFRKFDSSKPQLVGEITPYLSNFIDIDRDLYNAASNPDSAVGFKEFTKLNYDGANIRATFDHGRTVFHAAAKSGNDKIMFGLTFLAKSTELNQPDKKGYTPIHVAADSGNAGIVNLLIQRGVSINSKTYHFLQTPLHLAAQRGFVTTFQRLMESPEININERDKDGFTPLHYAIRGGERILEAFLNQISIDVNAKSNTGLTPFHLAIIKNDWPVASTLLGSKKVDINAVDENNITALHYAAILGYLETTKQLINLKEINANVVSSPGLLSALHYAILYKHDDVASFLMRSSNVNVNLKALGGITPLHLAVIQGRKQILSLMFDIGVNIEQKTDEKYTPLHLAAMSKYPELIQILLDQGSNFEAKTNSGATPLHLATFKGKSQAALILLNNEVNWRDTDENGQMPIHGAAMTGLLDVAQAIISIDATVVDIEDKNSDTPLNLAAQNSHIDVIKYFIDQGADINTRNKKGLAPLLAFSKKGNLDMVKYLFDKNANVYIADNDGMNFFYYAVQNGHLNIVKYAMSEKDKFEWSNTDNNRRDECPNEECAISHFAVCDAVQFDRIEIVKYFVGTLGNFAICGPLHQAARYGHLDIVKYLVEEEFLSVDGSKTDTPLCYASENGHFTVVQYLVSNGAKVNHDCGNGMTAIDKAITKNHLQVVQFLAANGVDFRRKNSRGTTPFLTAVAENALHIAEYLIREKRQDININEQNVDKDTALHLAVYYKNLQMIKLLIKYGIDVTIRNAYDKTALDIAIDAKFSNIVEYLKTKSGKFRR
modifications: 125I label (chloramine T procedure) in the binding and immunoprecipitation assays; coupled to Sepharose in the affinity chromatography
Turning to B1, the Kd in assay [1] amounted to 0.28 nM; in assay [2], 0.16 nM.
